According to paper PMC4949121 (Inorganic chemistry, 2016):

Tests used:
[1] = test system: VLA-4-overexpressing B16F10 mouse melanoma cells; experiment: Cell internalization assay; format: cell-based; settings: 10 pmol per well
[2] = test system: C57BL/6 mice bearing B16F10 xenografts
[3] = in vivo; settings: female, C57BL/6, mouse, tumor and muscle, iv, total radioactivity
[4] = in vivo; settings: female, C57BL/6, mouse, iv, total radioactivity

Cc1ccccc1NC(=O)Nc1ccc(CC(=O)N[C@@H](CCCCNC(=O)/C=C/c2cccnc2)C(=O)N[C@@H](CCCC(=O)O)C(=O)NC2(C(=O)NCCOCCOCCOCCOCC(=O)N[C@@H](CCCCNC(=S)Nc3ccc(CCCN(CCN4CCN(CC(=O)O)CCN(CC(=O)O)CC4)CC(=O)O)cc3)C(N)=O)CCCCC2)cc1 [^64Cu-NE3TA-PEG4-LLP2A, metal not drawn]
time at which internalization became saturated ([1]; time points 15 min, 1 h, 2 h, 4 h): ~ 2 h
specific internalization (total minus blocked) ([1]; up to 4 h, blocking with unlabeled LLP2A-PEG4 10 μg per well): High specific internalization
liver and kidney uptake ([2]; biodistribution): relatively low
uptake in tumor, spleen, bone, lung, and thymus with blocking ([2]; coinjection of excess unlabeled LLP2A-PEG4 (100 μg)): significantly reduced
tissue to tissue ratio at 2 h [3]: 13.1 ± 2.4
tissue to tissue ratio at 4 h [3]: 30.9 ± 0.7
tissue to tissue ratio at 4 h ([4]; tumor and blood): 16.8 ± 1.8
tissue to tissue ratio at 24 h ([4]; tumor and muscle): 25.2 ± 7.8
